Our source for the response values is paper PMC4403821.

First the molecules themselves.
B1: ORF74-Rluc8 [Kaposi's sarcoma-associated herpesvirus (KSHV)] / β-arrestin1-eYFP [not stated] (parent)
chain 1: MGDKGTRVFKKASPNGKLTVYLGKRDFVDHIDLVDPVDGVVLVDPEYLKERRVYVTLTCAFRYGREDLDVLGLTFRKDLFVANVQSFPPAPEDKKPLTRLQERLIKKLGEHAYPFTFEIPPNLPCSVTLQPGPEDTGKACGVDYEVKAFCAENLEEKIHKRNSVRLVIRKVQYAPERPGPQPTAETTRQFLMSDKPLHLEASLDKEIYYHGEPISVNVHVTNNTNKTVKKIKISVRQYADICLFNTAQYKCPVAMEEADDTVAPSSTFCKVYTLTPFLANNREKRGLALDGKLKHEDTNLASSTLLREGANREILGIIVSYKVKVKLVVSRGGLLGDLASSDVAVELPFTLMHPKPKEEPPHREVPENETPVDTNLIELDTNDDDIVFEDFARQRLKGMKDDKEEEEDGTGSPQLNNR
chain 2: MAAEDFLTIFLDDDESWNETLNMSGYDYSGNFSLEVSVCEMTTVVPYTWNVGILSLIFLINVLGNGLVTYIFCKHRSRAGAIDILLLGICLNSLCLSISLLAEVLMFLFPNIISTGLCRLEIFFYYLYVYLDIFSVVCVSLVRYLLVAYSTRSWPKKQSLGWVLTSAALLIALVLSGDACRHRSRVVDPVSKQAMCYENAGNMTADWRLHVRTVSVTAGFLLPLALLILFYALTWCVVRRTKLQARRKVRGVIVAVVLLFFVFCFPYHVLNLLDTLLRRRWIRDSCYTRGLINVGLAVTSLLQALYSAVVPLIYSCLGSLFRQRMYGLFQSLRQSFMSGATT

This assay covers variants of B1. The experiment in a line: BRET. The following applies: with β-arrestin1-eYFP; 300 nM CXCL1 (black bar); vehicle bar ~1.00; parent: 1.14; read off a plot. (In general: In BRET a luciferase serves as donor, and the signal depends on an acceptor being close.)
Regarding chain 2 MAAEDFLTIFLDDDESWNETLNMSGYDYSGNFSLEVSVCEMTTVVPYTWNVGILSLIFLINVLGNGLVTYIFCKHRSRAGAIDILLLGICLNSLCLSISLLAEVLMFLFPNIISTGLCRLEIFFYYLYVYLDIFSVVCVSLVRYLLVAYSTRSWPKKQSLGWVLTSAALLIALVLSGDACRHRSRVVDPVSKQAMCYENAGNMTADWRLHVRTVSVTAGFLLPLALLILFYALTWCVVRRTKLQARRKVRGVIVAVVLLFFVFCFPYHVLNLLDTLLRRRWIRDSCYTRGLINVGLAVTSLLQALYSAVVPLIYACLGALFRQRMYGLFQALRQAFMAGAAA [chain 2 S315A S319A S331A S335A S338A T341A T342A], the response was 1 fold basal.
